One may read the Tm as the temperature at the midpoint of the melting transition.

Results on 30 substances are retold here after FireProtDB.

Where [1] appears, read: Bos taurus, pH 4.4, Thermal, DSC, Sodium acetate 25 mM, NaCl 100 mM, reversible: yes.
Where [2] appears, read: Bos taurus, pH 4.8, Thermal, DSC, Sodium acetate 25 mM, NaCl 100 mM, reversible: yes.
The mark [3] stands for this setting: Bos taurus, pH 5.3, Thermal, DSC, Sodium acetate 25 mM, NaCl 100 mM, reversible: yes.
Setting [4] is: Bos taurus, pH 7.55, Thermal, DSC, Tris 0.09 M, reversible: yes.
Where [5] appears, read: Bos taurus, pH 8, Thermal, DSC, Sodium acetate 25 mM, NaCl 100 mM, reversible: yes.
Setting [6] is: Homo sapiens, Thermal, DSC, 1 X - PBS, Mg2+ 0.5 mM, structure 1AJE.
Setting [7] is: Thermotoga maritima (strain ATCC 43589 / DSM 3109 / JCM 10099 / NBRC 100826 / MSB8), pH 6.5, 25 °C, GdnHCl, Fluorescence, sodium phosphate 50 mM, NaCl 20 mM, reversible: yes.
Setting [8] is: Equus caballus, pH 6, 20 °C, GdnHCl, CD, MES 10 mM, NaCl 0.4 M, reversible: yes.
Setting [9] is: Equus caballus, pH 7, 10 °C, GdnHCl, CD, sodium phosphate 0.1 M, reversible: yes.
[10] abbreviates: Equus caballus, pH 7, 10 °C, GdnHCl, Fluorescence, acetate/phosphate 50 mM/50 mM/.
The mark [11] stands for this setting: Equus caballus, pH 7, 22 °C, GdnHCl, Fluorescence, sodium phosphate 0.1 M, reversible: yes.
Setting [12] is: Equus caballus, pH 7, 23 °C, GdnHCl, SAXS, Phosphate 100 mM, transition: 2.
Setting [13] is: Equus caballus, pH 7, 25 °C, GdnHCl, DSC, cacodylic acid 0.03 M, NaCl 0.1 M, reversible: yes.
Setting [14] is: Equus caballus, pH 12.7, 22 °C, GdnHCl, Fluorescence, NaOH, reversible: yes.
The mark [15] stands for this setting: Homo sapiens, pH 7.5, Thermal, Differential Scanning Fluorimetry, PBS, transition: 2, structure 1DXX.
[16] abbreviates: Homo sapiens, pH 7.5, Thermal, CD, Tris-HCl, NaCl, structure 1DXX.
[17] abbreviates: Homo sapiens, pH 7, Thermal, CD, Phosphate 100 mM, NaCl 150 mM, structure 1DXX.
The mark [18] stands for this setting: Homo sapiens, pH 2.4, Thermal, CD, glycine hydrochloride 20 mM, NaCl 1 M, reversible: yes, structure 1TTG.
Setting [19] is: Homo sapiens, pH 7, Thermal, CD, sodium phosphate 20 mM, NaCl 0.1 M, reversible: yes, structure 1TTG.
[20] abbreviates: Homo sapiens, pH 7, Thermal, CD, sodium phosphate 20 mM, NaCl 1 M, reversible: yes, structure 1TTG.
The mark [21] stands for this setting: Homo sapiens, pH 5, 25 °C, Urea, CD, sodium acetate 50 mM, structure 1TTG.
Setting [22] is: Drosophila melanogaster, pH 7.5, 15 °C, GdnHCl, CD, Tris-HCl, NaCl 50 mM, structure 1SAN.
Setting [23] is: Bos taurus, pH 8, Thermal, DSC, HEPES 50mM, NaCl 150mM, structure 1IHG.
The mark [24] stands for this setting: Bos taurus, pH 8, Thermal, DSC, HEPES 50mM, NaCl 150mM.
The mark [25] stands for this setting: Bos taurus, pH 8, 30 °C, GdnHCl, CD, borate 10 mM, structure 1BP2.
Where [26] appears, read: Rattus norvegicus, pH 8, 25 °C, Urea, Fluorescence, Tris-HCl 50 mM, MgCl2 4 mM, transition: 3, reversible: yes, structure 1QM4.

Several values for one entry are separate records, joined by “and”; a condition that tells them apart may be missing. Equal values may be shown once.

Chain of Peptidyl-prolyl cis-trans isomerase D K227A, P26882 (P26882 whole entry K227A): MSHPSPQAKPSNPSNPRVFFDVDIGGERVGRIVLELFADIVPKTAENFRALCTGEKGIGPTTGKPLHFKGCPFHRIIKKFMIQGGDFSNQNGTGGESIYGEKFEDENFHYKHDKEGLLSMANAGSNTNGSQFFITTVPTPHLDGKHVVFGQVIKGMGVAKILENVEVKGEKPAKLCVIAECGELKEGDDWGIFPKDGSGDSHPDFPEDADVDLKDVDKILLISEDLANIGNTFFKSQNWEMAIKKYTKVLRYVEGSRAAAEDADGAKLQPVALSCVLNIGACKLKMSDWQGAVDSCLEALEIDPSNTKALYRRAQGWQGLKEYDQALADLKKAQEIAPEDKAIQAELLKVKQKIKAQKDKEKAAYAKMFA
Chain of Fibronectin D1544K, P02751 (P02751 whole entry D1544K): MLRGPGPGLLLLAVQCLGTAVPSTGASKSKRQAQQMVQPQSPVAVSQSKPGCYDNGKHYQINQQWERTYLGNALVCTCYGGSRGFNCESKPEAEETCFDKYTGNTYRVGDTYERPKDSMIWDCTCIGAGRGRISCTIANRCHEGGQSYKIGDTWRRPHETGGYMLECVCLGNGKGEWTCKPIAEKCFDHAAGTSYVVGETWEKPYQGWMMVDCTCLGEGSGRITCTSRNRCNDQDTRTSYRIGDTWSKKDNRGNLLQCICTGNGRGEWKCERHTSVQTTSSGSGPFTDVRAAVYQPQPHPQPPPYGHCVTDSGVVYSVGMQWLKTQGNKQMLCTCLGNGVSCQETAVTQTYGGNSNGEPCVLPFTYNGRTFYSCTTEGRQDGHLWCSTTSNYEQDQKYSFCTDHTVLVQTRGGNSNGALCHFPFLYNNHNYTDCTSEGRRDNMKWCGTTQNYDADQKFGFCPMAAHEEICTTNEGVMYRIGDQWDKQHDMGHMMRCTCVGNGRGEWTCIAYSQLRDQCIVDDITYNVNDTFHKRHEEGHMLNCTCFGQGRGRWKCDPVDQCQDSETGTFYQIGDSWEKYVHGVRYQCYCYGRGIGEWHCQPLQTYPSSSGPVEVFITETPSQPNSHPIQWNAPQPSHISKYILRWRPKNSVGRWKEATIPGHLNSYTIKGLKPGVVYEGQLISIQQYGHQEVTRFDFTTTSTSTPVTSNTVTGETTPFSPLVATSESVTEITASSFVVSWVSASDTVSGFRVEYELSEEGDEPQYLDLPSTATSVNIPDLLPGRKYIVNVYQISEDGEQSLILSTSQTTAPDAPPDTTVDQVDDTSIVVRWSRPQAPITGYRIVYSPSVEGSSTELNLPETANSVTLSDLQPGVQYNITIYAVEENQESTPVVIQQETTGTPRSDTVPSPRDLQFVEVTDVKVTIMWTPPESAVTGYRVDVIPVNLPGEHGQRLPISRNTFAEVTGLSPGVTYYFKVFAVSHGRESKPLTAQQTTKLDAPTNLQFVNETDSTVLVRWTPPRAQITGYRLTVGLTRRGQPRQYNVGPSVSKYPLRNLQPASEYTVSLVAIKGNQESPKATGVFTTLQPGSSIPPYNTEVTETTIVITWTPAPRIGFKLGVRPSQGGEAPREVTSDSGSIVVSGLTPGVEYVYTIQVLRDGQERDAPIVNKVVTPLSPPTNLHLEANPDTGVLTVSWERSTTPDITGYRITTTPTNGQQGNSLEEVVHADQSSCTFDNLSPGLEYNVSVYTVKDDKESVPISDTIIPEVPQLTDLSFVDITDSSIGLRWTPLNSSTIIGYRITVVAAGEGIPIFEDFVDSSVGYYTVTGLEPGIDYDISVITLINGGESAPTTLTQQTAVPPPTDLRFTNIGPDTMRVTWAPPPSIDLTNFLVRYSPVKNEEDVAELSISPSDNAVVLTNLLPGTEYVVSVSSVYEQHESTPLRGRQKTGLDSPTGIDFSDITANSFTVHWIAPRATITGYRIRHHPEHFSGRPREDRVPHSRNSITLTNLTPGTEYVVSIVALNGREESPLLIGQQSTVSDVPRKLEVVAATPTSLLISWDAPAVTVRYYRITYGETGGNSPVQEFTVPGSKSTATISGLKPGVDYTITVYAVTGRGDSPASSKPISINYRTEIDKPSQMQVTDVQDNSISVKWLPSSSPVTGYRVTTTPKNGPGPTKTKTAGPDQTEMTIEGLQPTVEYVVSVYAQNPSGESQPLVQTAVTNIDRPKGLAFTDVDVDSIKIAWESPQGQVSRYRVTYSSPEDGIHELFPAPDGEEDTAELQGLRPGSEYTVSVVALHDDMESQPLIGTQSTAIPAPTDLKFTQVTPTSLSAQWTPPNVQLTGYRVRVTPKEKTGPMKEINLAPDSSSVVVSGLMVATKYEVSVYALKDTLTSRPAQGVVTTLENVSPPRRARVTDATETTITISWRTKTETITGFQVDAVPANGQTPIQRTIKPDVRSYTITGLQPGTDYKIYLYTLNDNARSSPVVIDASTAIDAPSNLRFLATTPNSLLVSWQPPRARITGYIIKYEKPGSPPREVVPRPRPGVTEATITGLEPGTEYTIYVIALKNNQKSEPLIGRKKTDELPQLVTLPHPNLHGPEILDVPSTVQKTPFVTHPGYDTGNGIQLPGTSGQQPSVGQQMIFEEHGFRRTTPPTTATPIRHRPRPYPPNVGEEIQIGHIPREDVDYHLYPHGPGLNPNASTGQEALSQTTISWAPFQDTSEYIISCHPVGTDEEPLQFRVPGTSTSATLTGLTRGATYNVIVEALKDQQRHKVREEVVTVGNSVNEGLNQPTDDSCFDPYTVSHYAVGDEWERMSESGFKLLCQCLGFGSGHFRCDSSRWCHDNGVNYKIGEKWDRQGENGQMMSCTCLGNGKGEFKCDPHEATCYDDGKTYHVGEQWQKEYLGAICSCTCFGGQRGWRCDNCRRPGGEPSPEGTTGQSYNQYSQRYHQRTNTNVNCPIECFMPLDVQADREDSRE
Chain of S-adenosylmethionine synthase isoform type-1 R265H, P13444 (P13444 whole entry R265H, canonical isoform): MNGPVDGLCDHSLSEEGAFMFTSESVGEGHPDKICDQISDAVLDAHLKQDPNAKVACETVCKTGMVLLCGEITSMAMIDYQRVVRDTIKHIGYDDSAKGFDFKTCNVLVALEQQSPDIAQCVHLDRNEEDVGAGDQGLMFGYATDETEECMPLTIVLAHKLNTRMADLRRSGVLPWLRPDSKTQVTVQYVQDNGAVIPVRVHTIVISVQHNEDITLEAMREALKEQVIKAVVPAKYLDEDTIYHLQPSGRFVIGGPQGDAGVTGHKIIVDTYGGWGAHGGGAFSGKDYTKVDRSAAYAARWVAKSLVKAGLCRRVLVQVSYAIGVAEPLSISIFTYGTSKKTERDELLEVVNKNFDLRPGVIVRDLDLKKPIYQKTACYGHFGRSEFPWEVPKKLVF
Chain of Endo-1,4-beta-xylanase wild type, Q59962 (Q59962 entry or part of it): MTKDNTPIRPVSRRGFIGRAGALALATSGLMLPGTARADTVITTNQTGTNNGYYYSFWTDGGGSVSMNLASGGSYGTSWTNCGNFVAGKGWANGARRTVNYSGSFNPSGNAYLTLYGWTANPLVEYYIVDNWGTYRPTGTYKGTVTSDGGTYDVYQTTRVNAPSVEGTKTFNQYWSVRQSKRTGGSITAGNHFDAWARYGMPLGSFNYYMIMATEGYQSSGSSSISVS
Chain of Homeotic protein antennapedia R306E|L310R|H317R|F318R, P02833 R306E L310R H317R F318R (P02833 whole entry R306E/L310R/H317R/F318R): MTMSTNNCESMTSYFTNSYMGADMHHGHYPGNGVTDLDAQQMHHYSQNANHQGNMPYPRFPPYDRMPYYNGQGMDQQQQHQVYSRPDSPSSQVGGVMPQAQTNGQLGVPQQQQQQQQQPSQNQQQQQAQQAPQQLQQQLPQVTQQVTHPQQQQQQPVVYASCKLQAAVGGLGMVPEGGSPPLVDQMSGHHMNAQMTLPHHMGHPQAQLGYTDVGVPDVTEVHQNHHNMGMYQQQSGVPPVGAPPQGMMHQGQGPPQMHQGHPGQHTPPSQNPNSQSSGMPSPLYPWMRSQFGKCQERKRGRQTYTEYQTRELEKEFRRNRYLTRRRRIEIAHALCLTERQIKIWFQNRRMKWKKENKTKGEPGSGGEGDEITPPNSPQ
Chain of Peptidyl-prolyl cis-trans isomerase D K308A, P26882 (P26882 whole entry K308A): as the sequence (P26882 whole entry K227A) above, with A227K, K308A counted along it
Chain of Carbonic anhydrase 2 wild type, P00921 (P00921 whole entry): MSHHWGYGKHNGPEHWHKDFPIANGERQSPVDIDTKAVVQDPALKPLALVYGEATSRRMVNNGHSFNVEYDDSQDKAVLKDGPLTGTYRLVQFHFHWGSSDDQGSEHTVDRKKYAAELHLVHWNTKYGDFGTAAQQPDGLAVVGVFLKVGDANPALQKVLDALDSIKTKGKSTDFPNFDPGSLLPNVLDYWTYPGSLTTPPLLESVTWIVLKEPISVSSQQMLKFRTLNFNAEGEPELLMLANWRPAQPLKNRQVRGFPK
Chain of Cytochrome c wild type, P00004 (P00004 whole entry): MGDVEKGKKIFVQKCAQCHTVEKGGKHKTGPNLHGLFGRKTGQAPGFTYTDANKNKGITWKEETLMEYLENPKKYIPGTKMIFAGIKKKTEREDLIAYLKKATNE
Chain of Cell division control protein 42 homolog T35A, P60953 (P60953 whole entry T35A): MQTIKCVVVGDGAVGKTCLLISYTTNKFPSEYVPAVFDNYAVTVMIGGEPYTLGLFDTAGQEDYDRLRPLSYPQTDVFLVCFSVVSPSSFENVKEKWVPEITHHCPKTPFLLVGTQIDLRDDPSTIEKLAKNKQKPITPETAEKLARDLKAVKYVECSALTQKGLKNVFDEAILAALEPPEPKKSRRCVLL
Chain of Cold shock-like protein wild type, O54310 (O54310 whole entry): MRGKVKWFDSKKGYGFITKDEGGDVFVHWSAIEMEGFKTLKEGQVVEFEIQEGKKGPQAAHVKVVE
Chain of Cytochrome c wild type, P62894 (P62894 whole entry): as the sequence (P00004 whole entry) above, with T48S, K61G, T90G counted along it

For Carbonic anhydrase 2 wild type, P00921, the Tm stood at 39 °C under setting [1]; 48 °C under setting [2]; 56 °C under setting [3]; 62.5 °C under setting [4]; 64 °C under setting [5]. For the same substance, the “heat capacity change of unfolding” value under setting [1] was determined as 4 kcal/mol/K; the “heat capacity change of unfolding” value under setting [2] is 4 kcal/mol/K; the “heat capacity change of unfolding” value under setting [3] amounted to 4 kcal/mol/K; the “heat capacity change of unfolding” value under setting [4] is 3.9 kcal/mol/K; the “heat capacity change of unfolding” value under setting [5] is 3.8 kcal/mol/K. Moreover, the “unfolding enthalpy (calorimetric)” value under setting [5] is 190 kcal/mol.
Consider “Cell division control protein 42 homolog T35A, P60953”, for which, under setting [6], the Tm came out at 64.2 °C and the “change of melting temperature, mutant - wild type (higher = more stable)” value (shortened to “change of melting temperature, mutant”) was 0.7 °C.
As for “Cell division control protein 42 homolog wild type, P60953”, the Tm (Homo sapiens, Thermal, DSC, 1 X - PBS, Mg2+ 0.5 mM) is 63.5 °C.
As for “Cold shock-like protein wild type, O54310”, under setting [7], the denaturant m value stood at 1.34 kcal/mol/M and the unfolding free energy was 3.35 kcal/mol.
For “Creatine kinase B-type wild type, P00567”, for the setting “Oryctolagus cuniculus, pH 7.4, 22 °C, GdnHCl, CD, Sodium phosphate 100 mM”, the unfolding free energy stood at 6.94 kcal/mol. The midpoint of thermal melting (Tm) (Oryctolagus cuniculus, pH 8, Thermal, DSC, HEPES-NaOH 30 mM, reversible: no) was 55.9 °C.
For “Creatine kinase M-type wild type, P00563”, the Tm (Oryctolagus cuniculus, pH 8, Thermal, DSC, Hepes-NaOH 30 mM, NaCl 0.1 M, reversible: No) is 53.7 °C and 53.8 °C.
For the substance Cytochrome c wild type, P00004, the unfolding free energy (Equus caballus, pH 1.7, 20 °C, HCl, CD, HCl 9 mM) was determined as 3.3 kcal/mol; the unfolding free energy (Equus caballus, pH 4.9, 10 °C, GdnHCl, Fluorescence, sodium acetate 0.2 M) is 8.2 kcal/mol; the unfolding free energy under setting [8] is 2.04 kcal/mol; the unfolding free energy (Equus caballus, pH 6.5, 25 °C, GdnHCl, CD, HCl 0.1 M, reversible: yes) is 12.7 kcal/mol; the unfolding free energy under setting [9] is 20.4 kcal/mol and 12.1 kcal/mol; the unfolding free energy under setting [10] was 10.4 kcal/mol. For the same substance, the unfolding free energy by setting is: (Equus caballus, pH 7, 21 °C, GdnHCl, Absorbance, phosphate 10 mM) 8.5 kcal/mol; (Equus caballus, pH 7, 21 °C, GdnHCl, CD, phosphate 10 mM) 8.4 kcal/mol; (Equus caballus, pH 7, 21 °C, GdnHCl, Fluorescence, phosphate 10 mM) 7.4 kcal/mol; under setting [11], 18 kcal/mol; under setting [12], 10.7 kcal/mol and 7.2 kcal/mol; (Equus caballus, pH 7, 25 °C, GdnHCl, Absorbance, cacodylate 0.03 M, KCl 0.1 M, reversible: yes) 8.7 kcal/mol. Besides, the unfolding free energy is, setting by setting: under setting [13], 6 kcal/mol; (Equus caballus, pH 7, 25 °C, SDS, CD, Phosphate 50 mM) 3.59 kcal/mol; under setting [14], 3 kcal/mol. The denaturant m value was 1.61 kcal/mol/M under setting [8]; 3.8 kcal/mol/M and 3.2 kcal/mol/M under setting [9]; 3.9 kcal/mol/M under setting [10]; 4.1 kcal/mol/M and 2.5 kcal/mol/M under setting [12]; 2 kcal/mol/M under setting [13]. Besides, the “denaturant midpoint (higher = more stable)” value (“denaturant midpoint” for short) turned out to be 1.27 M under setting [8]; 2.67 M under setting [10]; 5 M under setting [11]; 2.54 M under setting [13]; 2.6 M under setting [14].
Regarding Cytochrome c wild type, P62894, the unfolding free energy (Bos taurus, pH 6.5, 25 °C, GdnHCl, CD, HCl 0.1 M, reversible: yes) was 15.4 kcal/mol.
For Dystrophin, P11532 C10S C188S, the Tm worked out at 61 °C (Homo sapiens, pH 7, Thermal, CD, NaH2PO4, NaCl, reversible: no, structure 1DXX) and 62.4 °C (Homo sapiens, pH 7, Thermal, Fluorescence, NaH2PO4, NaCl, reversible: no, structure 1DXX). Besides, the unfolding free energy (Homo sapiens, pH 7, Urea, CD, NaH2PO4, NaCl, reversible: yes, structure 1DXX) is 9.81 kcal/mol and the unfolding free energy (Homo sapiens, pH 7, Urea, Fluorescence, NaH2PO4, NaCl, reversible: yes, structure 1DXX) worked out at 12.8 kcal/mol.
As for Dystrophin, P11532 L172H, under setting [15], the midpoint of thermal melting (Tm) worked out at 42.1 °C and the “change of melting temperature, mutant” value is -1.28 °C.
As for Dystrophin, P11532 L427P, under setting [16], the Tm came to 50 °C and the “change of melting temperature, mutant” value is -3.4 °C.
As for Dystrophin, P11532 Y231N, under setting [17], the Tm is 43 °C and the “change of melting temperature, mutant” value is -15 °C.
With “Endo-1,4-beta-xylanase wild type, Q59962”, the “unfolding enthalpy (calorimetric)” value (Streptomyces sp. S38, pH 7.5, Thermal, DSC, MOPS 20 mM, NaCl 100 mM, reversible: No) is 108 kcal/mol and 125 kcal/mol and 127 kcal/mol.
Turning to Fibronectin D1544K, P02751, the Tm reads like this: (Homo sapiens, pH 2.4, Thermal, CD, glycine hydrochloride 20 mM, NaCl 0.1 M, reversible: yes, structure 1TTG) 69 °C; under setting [18], 77 °C; under setting [19], 70 °C; under setting [20], 78 °C.
On to Fibronectin D1544N, P02751, for which the midpoint of thermal melting (Tm) under setting [18] is 82 °C, the Tm under setting [19] is 69 °C and the Tm under setting [20] turned out to be 80 °C.
Fibronectin P1619A, P02751: under setting [21], the “ddG of mutation (higher = less stable)” value turned out to be 0.42 kcal/mol.
Still for that read-out and setting: the figure for Fibronectin P1624A, P02751 is 0.21 kcal/mol.
For Fibronectin Y1605F, P02751, the “ddG of mutation (higher = less stable)” value (Homo sapiens, pH 5, 25 °C, Urea, Fluorescence, Sodium acetate 50 mM, reversible: yes, structure 1TTG) is -2.03 kcal/mol.
In the case of “Homeotic protein antennapedia R306E|L310R|H317R|F318R, P02833 R306E L310R H317R F318R”, under setting [22], the denaturant m value is 1.6 kcal/mol/M and 0.79 kcal/mol/M; the “denaturant midpoint” value is 2.14 M and 1.32 M.
As to MKLWFSTLKLKKAA [wild type], the Tm was 65 °C (Bacillus licheniformis, pH 5, Thermal, Fluorescence, Sodium acetate 50 mM, reversible: no); 64.7 °C (Bacillus licheniformis, pH 6, Thermal, Fluorescence, Sodium phosphate 50 mM); 56.5 °C (Bacillus licheniformis, pH 9, Thermal, Fluorescence, Sodium pyrophosphate 50 mM, reversible: yes). Moreover, under “Bacillus licheniformis, pH 7, Thermal, Fluorescence, Sodium phosphate 50 mM, reversible: yes”, the “unfolding enthalpy (van 't Hoff)” value is 99.9 kcal/mol and 112 kcal/mol and 164 kcal/mol.
For the substance “Peptidyl-prolyl cis-trans isomerase D K227A, P26882”, under setting [23], the Tm was determined as 45.2 °C; the “change of melting temperature, mutant” value worked out at 0.12 °C; the “unfolding enthalpy (calorimetric)” value was 159 kcal/mol.
Take “Peptidyl-prolyl cis-trans isomerase D K308A, P26882”: under setting [23], the Tm turned out to be 45 °C; the “change of melting temperature, mutant” value was -0.07 °C; the “unfolding enthalpy (calorimetric)” value is 155 kcal/mol.
As for “Peptidyl-prolyl cis-trans isomerase D wild type, P26882”, under setting [24], the Tm turned out to be 45.1 °C and the “unfolding enthalpy (calorimetric)” value was found to be 165 kcal/mol.
As for Phospholipase A2 H70A, P00593, under setting [25], the “ddG of mutation (higher = less stable)” value turned out to be 3.1 kcal/mol, the denaturant m value came out at 1.02 kcal/mol/M, the “denaturant midpoint” value was determined as 6.3 M and the unfolding free energy worked out at 6.4 kcal/mol.
With Phospholipase A2 H70Q, P00593, under setting [25], the “ddG of mutation (higher = less stable)” value came to 0.6 kcal/mol, the denaturant m value amounted to 1.34 kcal/mol/M, the “denaturant midpoint” value worked out at 6.6 M and the unfolding free energy was 8.9 kcal/mol.
In the case of “Phospholipase A2, major isoenzyme N111D, P00592”, the unfolding free energy (Sus scrofa, pH 7, 20 °C, GdnHCl, Absorbance, Tris 5 mM, reversible: yes, structure 1P2P) was determined as 0.19 kcal/mol.
With “Phospholipase A2, major isoenzyme wild type, P00592”, under “Sus scrofa, pH 7, 20 °C, GdnHCl, Absorbance, Tris 5 mM, reversible: yes”, the unfolding free energy was found to be 0 kcal/mol.
As to “S-adenosylmethionine synthase isoform type-1 R265H, P13444”, under setting [26], the denaturant m value was found to be 1.15 kcal/mol/M, the “denaturant midpoint” value was 3.82 M and the unfolding free energy turned out to be 4.41 kcal/mol.
In the case of “S-adenosylmethionine synthase isoform type-1 wild type, P13444”, where the note is “Rattus norvegicus, pH 8, 25 °C, Urea, Fluorescence, Tris-HCl 50 mM, MgCl2 4 mM, transition: 3, reversible: yes”, the unfolding free energy is 6.12 kcal/mol and 4.41 kcal/mol.
Soluble cytochrome b562 A62G, P0ABE7: the “ddG of mutation (higher = less stable)” value (Escherichia coli, pH 5, 25 °C, Urea, Fluorescence, NaAc 50 mM, structure 6BQG) was found to be 0.57 kcal/mol.
